Laboratory results published in US20220315631A1, “STAPLED BETA-CATENIN LIGANDS” (Ohio State Innovation Foundation, priority 2019, published 2022).
Positions of bridges follow the written chain, without caps; N, C: chain ends. Non-standard residues stand in square brackets, D forms with d. Residues, ends and D or L forms follow the SMILES beside them. No end group written: not given here. m‑xylene = 1,3-bis[(methylthio)methyl]benzene scaffold from m-xylene dibromide; miniPEG = polyethylene glycol moiety (linker unit); 1Nal = N[C@@H](Cc1cccc2ccccc12)C(=O)O; 2Nal = N[C@@H](Cc1ccc2ccccc2c1)C(=O)O; Bta = N[C@@H](Cc1csc2ccccc12)C(=O)O; Tle = CC(C)(C)[C@H](N)C(=O)O; Dap = NC[C@H](N)C(=O)O; AEEA = NCCOCCOCC(=O)O; βAla = NCCC(=O)O

T1: GST-β-catenin (UniProt P35222 133-665)
T1 construct: range 133-665; GST fusion purified on glutathione-agarose and used in the FP assays; also called GST-β-catenin(133-665); pGEX-β-catenin(133-665); not shown: glutathione S-transferase (GST) tag encoded by the pGEX plasmid
T1 sequence (looked up): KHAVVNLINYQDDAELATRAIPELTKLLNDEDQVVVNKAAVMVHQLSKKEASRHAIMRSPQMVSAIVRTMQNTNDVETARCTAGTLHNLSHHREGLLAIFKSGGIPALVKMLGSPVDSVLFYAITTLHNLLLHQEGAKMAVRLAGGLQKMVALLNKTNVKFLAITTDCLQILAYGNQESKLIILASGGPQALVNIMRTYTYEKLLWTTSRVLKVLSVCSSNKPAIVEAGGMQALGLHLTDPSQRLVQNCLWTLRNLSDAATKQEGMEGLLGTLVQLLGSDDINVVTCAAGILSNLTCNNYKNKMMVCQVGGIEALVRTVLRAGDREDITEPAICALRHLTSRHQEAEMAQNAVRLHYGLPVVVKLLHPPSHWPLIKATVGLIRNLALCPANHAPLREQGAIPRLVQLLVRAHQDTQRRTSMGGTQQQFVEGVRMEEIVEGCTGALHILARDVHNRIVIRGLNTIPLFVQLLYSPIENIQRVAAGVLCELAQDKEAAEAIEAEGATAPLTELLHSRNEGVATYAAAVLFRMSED

T2: β-catenin (Homo sapiens, UniProt P35222)
T2 construct: cells harboring plasmid pGEX-β-catenin(133-665)52 were grown in LB medium; made in house; host or cells: E. coli BL21 (DE3)
T2 sequence (P35222 133-665): T1 sequence (looked up)

B1: Peptide 7 (peptide)
peptide: Ac-GGYPECILDCKHLQDVILK[βAla]-NH2
modifications: lactam (positions not given here); linker 6-10 via m‑xylene; not fully specified; also: Asp-Lys staple, places not given here (residues shown as images)
notes: Double stapled peptide
B2: Peptide 19 (peptide)
peptide: Ac-YPEDILDKHLQSV[Bta]T[miniPEG][miniPEG][Dap]-NH2
modifications: lactam 4-8
B3: Peptide 21 (peptide)
peptide: Ac-YPEDILDKHLQQV[Bta]T[miniPEG][miniPEG][Dap]-NH2
modifications: lactam 4-8
B4: Peptide 20 (peptide)
peptide: Ac-YPEDILDKHLQEV[Bta]T[miniPEG][miniPEG][Dap]-NH2
modifications: lactam 4-8
B5: Peptide 11 (peptide)
peptide: Ac-GGYPEDILDKHLQR[Tle][Bta]L-NH2
modifications: lactam 6-10
notes: also called Ac-GGYPEDILDKHLQRZ(3-Bta)L-NH2
B6: Peptide 37 (peptide)
peptide: YPEDILDKHLQRXIL
modifications: N-terminal acetyl; Asp-Lys staple; Hvl = β-hydroxyvaline; C-terminal amide
B7: Peptide 12 (peptide)
peptide: Ac-GGYPEDILDKHLQR[Tle][1Nal]L-NH2
modifications: lactam 6-10
notes: also called Ac-GGYPEDILDKHLQRZ(1-Nal)L-NH2
B8: Peptide 22 (peptide)
peptide: Ac-YPEDILDKHLQ[dE]V[Bta]T[miniPEG][miniPEG][Dap]-NH2
modifications: lactam 4-8
B9: Peptide 28 (peptide)
peptide: Ac-YPEDILDKHLQRV[Tle]L[miniPEG][miniPEG][Dap]-NH2
modifications: lactam 4-8
notes: also called Ac-YPEDILDKHLQRVZL-(miniPEG)2-Dap-NH2
B10: Peptide 23 (peptide)
peptide: Ac-YPEDILDKHLQSV[Bta][dS][miniPEG][miniPEG][Dap]-NH2
modifications: lactam 4-8
B11: Peptide 13 (peptide)
peptide: Ac-GGYPEDILDKHLQR[Tle][2Nal]L-NH2
modifications: lactam 6-10
notes: also called Ac-GGYPEDILDKHLQRZ(2-Nal)L-NH2
B12: Peptide 6 (peptide)
peptide: Ac-GGYPEDILDKHLQRVIL-NH2
modifications: lactam (positions not given here); not fully specified
B13: Peptide 8 (peptide)
peptide: Ac-GGYPEDILDKHLQCVILC[βAla]-NH2
modifications: lactam 6-10; linker 14-18 via m‑xylene
notes: Double stapled peptide
B14: Peptide 18 (peptide)
peptide: Ac-GGYPEDILDKHLQR[Tle][Bta]L[AEEA][AEEA][Dap][dF][2Nal]R[dR]R[dR]Q
modifications: lactam 6-10; bridge (positions not given here); not fully specified (bridges); numbers in words are those of the source; also: cCPP9 ring hung on Dap18 side chain via Gln25 side chain, no backbone bond Dap18-X19
notes: also called Ac-GGYPEDILDKHLQRZ(3-Bta)L-(miniPEG)2-Dap(CPP9)
B15: Peptide 15 (peptide)
peptide: XXRXRXQGGYPEDILDKHLQRXXL
modifications: not fully specified; N-terminal CPP9-(miniPEG)2; Asp-Lys staple; Z = tert-leucine; 2-Nal = 2-napthylalanine; C-terminal amide
notes: also called CPP9-(miniPEG)2-GGYPEDILDKHLQRZ(2-Nal)L-NH2
B16: Peptide 10 (peptide)
peptide: Ac-GGYPEDILDKHLQR[Tle]WL-NH2
modifications: lactam 6-10
notes: also called Ac-GGYPEDILDKHLQRZWL-NH2
B17: Peptide 16 (peptide)
peptide: Ac-GG[Bta]PEDILDKHLQR[Tle][Bta]L-NH2
modifications: lactam 6-10
SMILES: CC[C@H](C)[C@@H]1NC(=O)[C@@H](NC(=O)[C@H](CCC(=O)O)NC(=O)[C@@H]2CCCN2C(=O)[C@H](Cc2csc3ccccc23)NC(=O)CNC(=O)CNC(C)=O)CC(=O)NCCCC[C@@H](C(=O)N[C@@H](Cc2c[nH]cn2)C(=O)N[C@@H](CC(C)C)C(=O)N[C@@H](CCC(N)=O)C(=O)N[C@@H](CCCNC(=N)N)C(=O)N[C@H](C(=O)N[C@@H](Cc2csc3ccccc23)C(=O)N[C@@H](CC(C)C)C(N)=O)C(C)(C)C)NC(=O)[C@H](CC(=O)O)NC(=O)[C@H](CC(C)C)NC1=O
notes: also called Ac-GG(3-Bta)PEDILDKHLQRZ(3-Bta)L-NH2
B18: Peptide 14 (peptide)
peptide: XXRXRXQGGYPEDILDKHLQRXXL
modifications: not fully specified; N-terminal CPP9-(miniPEG)2; Asp-Lys staple; Z = tert-leucine; 3-Bta = 3-benzothienyl-l-alanine; C-terminal amide
notes: also called CPP9-(miniPEG)2-GGYPEDILDKHLQRZ(3-Bta)L-NH2

Each molecule was assayed against T1, GST-β-catenin (assay: Table 7, binding to β-catenin; FP competition as for peptides 2-5 presumed). Conditions: not given.

Molecule | IC50
B1 | 3200 nM
B2 | 382 nM
B3 | 328 nM
B4 | 1800 nM
B5 | 65 nM
B6 | 154 nM
B7 | 175 nM
B8 | 3500 nM
B9 | 306 nM
B10 | 565 nM
B11 | 86 nM
B12 | 245 nM
B13 | 525000 nM
B14 | 104 nM
B15 | 79.4 nM
B16 | 71 nM
B17 | 97.9 nM
B18 | 63.5 nM

The molecules below were run against T2, β-catenin (assay: FP-based competition assay for binding to β-catenin). Conditions: IC50; competition with FAM-labeled peptide 1 (10 nM), 50 nM GST-β-catenin; read-out: KD or IC50.
Procedure: Samples were transferred into black-on-black 384-well non-binding microplates (Greiner) and FP was measured using a Tecan M1000 Infinite plate reader. The data were analyzed using GraphPad Prism v. 8.0 and normalized to FP values corresponding to fully bound/unbound probe. All binding values reported are the mean±SD of independent experiments.
Protein Purification. […] Cells were harvested by centrifugation and lysed in lysis buffer (20 mM Tris, pH 8.0, 150 mM NaCl, 2 mM DTT, 1% Triton-X100, 200 mM EDTA, 10 mg/mL PMSF, and 0.2 mg/mL lysozyme) on ice for 20 min, followed by sonication (8 s off, 2 s on, 1 min total, performed twice at 70% amplitude). The homogenate was centrifuged (13,000 g for 30 min at 4° C. and the clear supernatant was loaded onto an equilibrated glutathione-agarose column. After exhaustive washing with wash buffer (20 mM Tris, pH 7.4, 150 mM NaCl, 2 mM DTT), the bound GST-β-catenin was eluted with wash buffer supplemented with 10 mM glutathione, concentrated, and stored at −80° C. in 30% glycerol.

Molecule | IC50
CC[C@H](C)[C@@H]1NC(=O)[C@@H](NC(=O)[C@H](CCC(=O)O)NC(=O)[C@@H]2CCCN2C(=O)[C@H](Cc2ccc(O)cc2)NC(C)=O)CC(=O)NCCCC[C@@H](C(=O)N[C@@H](Cc2c[nH]cn2)C(=O)N[C@@H](CC(C)C)C(=O)N[C@@H](CCC(N)=O)C(=O)N[C@@H](CCCNC(=N)N)C(=O)N[C@H](C(=O)N[C@@H](Cc2csc3ccccc23)C(=O)N[C@@H](CCCNC(=N)N)C(=O)NCCOCCOCC(=O)NCCOCCOCC(=O)N[C@@H](CN)C(N)=O)C(C)(C)C)NC(=O)[C@H](CC(=O)O)NC(=O)[C@H](CC(C)C)NC1=O [Peptide 26, Ac-YPEDILDKHLQRZ(3-Bta)R-(miniPEG)2-Dap-NH2] (Ac-YPEDILDKHLQR[Tle][Bta]R[AEEA][AEEA][Dap]-NH2; lactam 4-8) | 37 nM
CC[C@H](C)[C@@H]1NC(=O)[C@@H](NC(=O)[C@H](CCC(=O)O)NC(=O)[C@@H]2CCCN2C(=O)[C@H](Cc2ccc(O)cc2)NC(C)=O)CC(=O)NCCCC[C@@H](C(=O)N[C@@H](Cc2c[nH]cn2)C(=O)N[C@@H](CC(C)C)C(=O)N[C@@H](CCC(N)=O)C(=O)N[C@@H](CCCNC(=N)N)C(=O)N[C@H](C(=O)N[C@@H](Cc2csc3ccccc23)C(=O)N[C@H](CCCNC(=N)N)C(=O)NCCOCCOCC(=O)NCCOCCOCC(=O)N[C@@H](CN)C(N)=O)C(C)(C)C)NC(=O)[C@H](CC(=O)O)NC(=O)[C@H](CC(C)C)NC1=O [Peptide 27, Ac-YPEDILDKHLQRZ(3-Bta)(dR)-(miniPEG)2-Dap-NH2] (Ac-YPEDILDKHLQR[Tle][Bta][dR][AEEA][AEEA][Dap]-NH2; lactam 4-8) | 41 nM
